In the DeepSol protein solubility set:

Assay: soluble on expression in E. coli; label from the status in PepcDB or PDB records

Sequence	soluble on expression in E. coli
GMATYNYPEFGAGLWHFANYIDRYAVDGYGPALSTIDQINAAKEVGELSYVDLPYPFTPGVTLSEVKDALKDAGLKAIGITPEIYLQKWSRGAFTNPDPAARAAAFELMHESAGIVRELGANYVKVWPGQDGWDYPFQVSHKNLWKLAVDGMRDLAGANPDVKFAIEYKPREPRVKMTWDSAARTLLGIEDIGLDNVGVLLDFGHALYGGESPADSAQLIIDRGRLFGMDVNDNLRGWDDDLVVGTVHMTEIFEFFYVLKINNWQGVWQLDQFPFRENHVEAAQLSIRFLKHIYRALDKLDIPALQAAQEAQNPLQAQRIVQDALLSSITVSE	soluble
MGSDKIHHHHHHAADVSFPDAVRKVAVINNMPVLKTKDNHEILSSELEGDGKVASEALAENIANVNYFDQVIICDSVFRAQDKVPRVNVILTKEEVRKLSEDLGVDMILSFDRIHIQTKPGVLFYPDFPMPIDAVDGIISPIVRVYIPNRDKPLFVVAKQDTISWEIEPALSDRKIVKEASEYAASIPVEHLLPHWDEVARFYYDGGNIEMRDAGVYLRENNWDEAYSQWKIAYEKRKGQQKMKAAFNIALYYEIKDNVEQAKEWLGKAKKLVKSGSRDEQLIAFYSLELEKRGSKLSQLRIQMKRFDDNF	not soluble
MGSDKIHHHHHHLPRRYEDIYPSLPLLNSDGLEHMSAASLMSVRYFQAEPDRMPEDVFAEHHILLNLKAEPHRVQNTRDGEMRDFTFSKNDIIVTPAGMRSGWRWFAQSDVIVVTLLPDRVQRFAETELGLLLDPQQLGDLPLFSDADLCAAGVMLRDALEADDMSSAVMFEALSRVFLVKLLQRYGKRRPEDVALSSRFTSAHYNRVLAFIRANLERTITLDDLASEAGMSPSHFSRLFKDTVGTPPMQYVMAYRIEQSLAMMTDQGRALGDIALACGFADQAHFSRSFKQLMGATPRQHRSSLS	not soluble
MKKISRKEYVSMYGPTTGDKVRLGDTDLIAEVEHDYTIYGEELKFGGGKTLREGMSQSNNPSKEELDLIITNALIVDYTGIYKADIGIKDGKIAGIGKGGNKDMQDGVKNNLSVGPATEALAGEGLIVTAGGIDTHIHFISPQQIPTAFASGVTTMIGGGTGPADGTNATTITPGRRNLKWMLRAAEEYSMNLGFLAKGNASNDASLADQIEAGAIGFKIHEDWGTTPSAINHALDVADKYDVQVAIHTDTLNEAGCVEDTMAAIAGRTMHTFHTEGAGGGHAPDIIKVAGEHNILPASTNPTIPFTVNTEAEHMDMLMVCHHLDKSIKEDVQFADSRIRPQTIAAEDTLHDMGAFSITSSDSQAMGRVGEVITRTWQTADKNKKEFGRLKEEKGDNDNFRIKRYLSKYTINPAIAHGISEYVGSVEVGKVADLVLWSPAFFGVKPNMIIKGGFIALSQMGDANASIPTPQPVYYREMFAHHGKAKYDANITFVSQAAYDKGIKEELGLERQVLPVKNCRNVTKKDMQFNNTTAHIEVNPETYHVFVDGKEVTSKPANKVSLAQLFSIF	soluble
MSGAEQQQIVPANNGDENWKAGLNLPAKDRRFKTADVTDTKGVEFEDFCLGRDLLMGIFEKGWEKPSPIQEASIGVALTGQDILARAKNGTGKTGAYCIPVIEKIQPALKAIQAMVIVPTRELALQTSQICVELSKHIQLKVMVTTGGTDLRDDIMRLNGTVHLVIATPGRILDLMEKGVAKMEHCKTLVLDEADKLLSQDFQGILDRLINFLPKERQVMLYSATFPNTVTSFMQKHMHKPYEINLMEELTLLGVTQYYAFVQEKQKVHCLNTLFRKLQINQSIIFCNSTQRVELLAKKITEIGYSCYYIHSKMAQNHRNRVFHDFRQGNCRNLVCSDLLTRGIDIQAVNVVINFDFPRNAETYLHRIGRSGRFGHLGVAINLITYEDRHTLRRIEQELRTRIEPIPKTVDPKLYVADQQLVDAADETTA	not soluble
MGHHHHHHSHMACYIYQLPSWVLDDLCRNMDALSEWDWMEFASYVITDLTQLRKIKSMERVQGVSITRELLWWWGMRQATVQQLVDLLCRLELYRAAQIILNWKPAPEIRCPIPAFPDSVK	soluble
MANSMATLSRRLYRSLLSNPRISQASMSFCTNNITSPEDSDFDELESPIEPKASDPVSRFSGEERVMEERPLENGLDSGIFKAILVGQVGQLPLQKKLKSGRTVTLFSVGTGGIRNNRRPLINEDPREYASRSAVQWHRVSVYPERLADLVLKNVEPGTVIYLEGNLETKIFTDPVTGLVRRIREVAIRRNGRVVFLGKAGDMQQPSSAELRGVGYY	soluble
MGSDKIHHHHHHMTLNIDQESCIKCGKCVRVCPSDIFTQERAGETIGLVRVESCIVCGHCVDVCPTGSVSHSEFPPEKTHTIDYSQMPTPEQVMLLIKSRRSNRTLTSRPVPKEMLDKIVEAAHSAPTATNSQSLSFTVVTDPRKLRQVSDYTIGVFDSLAKLLLNPVVKCVVKPFMKDVYKYVPVFNRLKEEHKAGKDPILRKATALLLIHTPKSNRFGSEDANLAYQNASLMAQSLGVSQIYMGFVLTAIRQEGKDTLAKTLGIDGKIQAIMALGIPAFKYPKYTDRKEIVKNYIE	not soluble
MIKNPKVLILTAHYGNGHVQVAKTLEQTFRQKGIEDVIVCDLFGESHPFITDITKYLYLKSYTIGKELYRLFYYGVEKIYDKKIASWYANFGRKRLKTLLQVEKPDIVINTFPIIAVPELKKQTGISIPVYNVLTDFCVHKIWIHREVDRYFVATDHVKELMVDIGVPAEQIVETGIPIRSSFELKVNPEIIYTKYQLCKNKKILLIVAGAHGVLGNVKELCQSFMSVPNLQVVVVCGKNEALKQDLLSLQKQNSDALKVFGYVENIDELFRVTSCMITKPGGITLSEAAALQVPVILYKPVPGQENENAMYFERKGAAVVIRDDSEVFAKTEALLQDDVKLLQMKEAMKSIYLPEPAGHIVDAILAENHAEPRHIPIKSPALAQSFTLEHHHHHH	not soluble
MGSDKIHHHHHHMEAADASRSNGSSPEARDARSPSGPSGSLENGTKADGKDAKTTNGHGGEAAEGKSLGSALKPGEGRSALFAGNEWRRPIIQFVESGDDKNSNYFSMDSMEGKRSPYAGLQLGAAKKPPVTFAEKGELRKSIFSESRKPTVSIMEPGETRRNSYPRADTGLFSRSKSGSEEVLCDSCIGNKQKAVKSCLVCQASFCELHLKPHLEGAAFRDHQLLEPIRDFEARKCPVHGKTMELFCQTDQTCICYLCMFQEHKNHSTVTVEEAKAEKETELSLQKEQLQLKIIEIEDEAEKWQKEKDRIKSFTTNEKAILEQNFRDLVRDLEKQKEEVRAALEQREQDAVDQVKVIMDALDERAKVLHEDKQTREQLHSISDSVLFLQEFGALMSNYSLPPPLPTYHVLLEGEGLGQSLGNFKDDLLNVCMRHVEKMCKADLSRNFIERNHMENGGDHRYVNNYTNSFGGEWSAPDTMKRYSMYLTPKGGVRTSYQPSSPGRFTKETTQKNFNNLYGTKGNYTSRVWEYSSSIQNSDNDLPVVQGSSSFSLKGYPSLMRSQSPKAQPQTWKSGKQTMLSHYRPFYVNKGNGIGSNEAP	not soluble
KRAGTVCSNCQTSTTTLWRRSPMGDPVCNACGLYYKLHQVNRPLTMRKDGIQTRNRKVSSKGKKRR	soluble
MGSDKIHHHHHHMRRLRKALAAGSFLFRGTFVQSDPIPARARRPIMMLEHIQARTHHARRGALRNSFTYGVDYVLTDLGPAGPLLISRNRFNLWSLWDHRHGGARDNGHGVHWFRSLLQERGLATENAQLLLLTQPSFLWFHFNPVSFWIALVDGTPRAFVAEVNSTFGQRHCYFCARDGFAPIRKSDTLIAEKLMHVSPFQRIAGHYAFNFGMTDTQIDIRISFENGDHGVLATLSGERRPATSASLAWAAIRRPLGAARVLALIHWQAAILYLKRAPFLKKQHPPEHLVSDGYDLRGTKE	not soluble
MGSDKIHHHHHHMKPRACVVVYPGSNCDRDAYHALEINGFEPSYVGLDDKLDDYELIILPGGFSYGDYLRPGAVAAREKIAFEIAKAAERGKLIMGICNGFQILIEMGLLKGALLQNSSGKFICKWVDLIVENNDTPFTNAFEKGEKIRIPIAHGFGRYVKIDDVNVVLRYVKDVNGSDERIAGVLNESGNVFGLMPHPERAVEELIGGEDGKKVFQSILNYLKR	not soluble
MKIAVDAMGGDNAPQAIVEGVMLAKQDFPDIEFQLYGKEAEIKKYITDEKNITIIHTDEKIASDDEPVKAIRRKKTASMVLAAQAVKNGEADAIFSAGNTGALLAAGLFIVGRIKNVERPGLMSTLPVMGEPDKGFDMLDLGANADNKPEHLVQYAVLGSFYAEKVRNVQNPRVGLLNNGTEETKGSELTKKAFELLAADETINFVGNVEARELLNGVADVVVTDGFTGNAVLKSIEGTAMNMMSLLKTAILSEGVKGKMGALLLKNALHGMKDEMDYSKHGGAVLFGLKAPVIKTHGATGPDAVRYTIRQIHTMLETQVVPQLVEYYEGKAE	soluble
MELWLVRHGETLWNREGRLLGWTDLPLTAEGEAQARRLKGALPSLPAFSSDLLRARRTAELAGFSPRLYPELREIHFGALEGALWETMDPRYKEALLRFQGFHPPGGESLSAFQERVFRFLEGLKAPAVLFTHGGVVRAVLRALGEDGLVPPGSAVAVDWPRRVLVRLALDGEEATG	soluble
SLNVPDMILYNGKITTLDPSQPEVSAIAITDGLITAVGGYELLNSATEKTKKIDLKRKRAIPGLNDSHIHVIRGGLHYNMELRWEGVPSIAIALEMLKEQARRTPAPQWVRVVGGWSEFQFKERRMPTLEEINAVSEDTPVFVLHLYDRALVNRAGLRALGYTKDTPDPPGCLIERDKRGNPTGLLIANPNASILYSSLGKAPILNFDDQINSTRHFMRELNRLGITSAIDAGGGFQNYPDDYRVVEHLAEKEQLTLRIAYNLFTQNPNHEYEDFASWAKIVSPGQGNDKYKMNGAGEMLVFSAADFEKFQMPRPELATMMEADLKKVISLLVENRWPFRLHATYDESITRFLNVFEEVNKEIPFNGLRWWFDHAETISDRSMERVKALNGGIAIQDRMAFQGEYFVDLYGKEAAKRTPPIYRMLDLGIPVGAGSDATRVSSYNPWVALYWMVAGKTIGGLSIYDKKNKLDRKVALELYSKGSAWFSGDEGKKGTLAVGQFADIAVLSADYFTVPEEEIKDLESLLTIMGGQVVYGNDEFKNLSPELPPASPDWSPTGVYGYGGANLAHTILSHNSHDNKLHSCSNPLHQHTHTVIGKDGTKWGIGCTCFAF	not soluble
EQIDRWNQVSEYIERLNVLEDNGSNTLIIASGIAYPYVKEITEEEGLNANIFRLVTPVPIPEKSILDSMTRVKKVLVVEENDPVVELQLSQLMVKNGIMKELHGKDLVSPIGELTLEKVRGAIMGFFGKEYVRSYPDDVSLRTRPPALCPGCPHRSSFYDIKKGLSKVSMQKAFFSGDIGCYTLGALPPFNEQDSATNMGSSVGISNGVFRATGQIPVSIIGDSTFFHSGLQGVANAVYNGTPEIIIVLDNRSTAMTGQQPSPSTHISIENVARAMGIDFVDTFDPFDVKEGSDAVQKAAEYVKENKKPALIVAKRACALEVLEKVGDYTMKAEVDLEKCTGCSICYDFFTCPSILPLSNKKAFIDDSCIGCGACVEVCPFNAIK	not soluble
MYMTGHSLGCYLAQIAAVEAYQKYPDFYNHVLRKVTTFSAPKVITSRTVWNAKNGFWDVGLESRKLAVSGKIKHYVVDNDNVVTPLIHNNRDIVTFTGNSRFKHRSRGYFESPMNDIPNFNIGKQATLDKHGYRDPKLDKVRFFKKQALPRSSSQPSAEPMENIASGKQVTQSSTAFGGDARRAVDGKVDGNYGHNSVTHTNFQSKPWWQVDLAKEETIRQINIYNRTDTAQDRLANFDVILLDSSGKEIE	not soluble
